Reference: publication PMC4663267, “A Novel C-Terminal Domain of RecJ is Critical for Interaction with HerA in Deinococcus radiodurans”

How the values were obtained:
[1] = molecular target: T1, DrRecJ;DrHerAΔN (Deinococcus radiodurans;Deinococcus …, UniProt D0EM60;Q9RW32 1-705;136-618, |); experiment: EMSA; with 4 uM DrNurA (dimer, P6), 800 nM HerAΔN hexamer; stimulation not decreased; EMSA: 100 nM DNA, 80 mM NaCl, 20 mM Tris-HCl pH 7.5, 1 mM DTT, 30 C, 10 min, 5% TBE native PAGE; settings: protein: recombinant;recombinant; tags: HMT (His6-MBP) tag removed by TEV;N-terminal His6; copies: 1;6; label: 5' FAM; single strand
T1 sequence 1: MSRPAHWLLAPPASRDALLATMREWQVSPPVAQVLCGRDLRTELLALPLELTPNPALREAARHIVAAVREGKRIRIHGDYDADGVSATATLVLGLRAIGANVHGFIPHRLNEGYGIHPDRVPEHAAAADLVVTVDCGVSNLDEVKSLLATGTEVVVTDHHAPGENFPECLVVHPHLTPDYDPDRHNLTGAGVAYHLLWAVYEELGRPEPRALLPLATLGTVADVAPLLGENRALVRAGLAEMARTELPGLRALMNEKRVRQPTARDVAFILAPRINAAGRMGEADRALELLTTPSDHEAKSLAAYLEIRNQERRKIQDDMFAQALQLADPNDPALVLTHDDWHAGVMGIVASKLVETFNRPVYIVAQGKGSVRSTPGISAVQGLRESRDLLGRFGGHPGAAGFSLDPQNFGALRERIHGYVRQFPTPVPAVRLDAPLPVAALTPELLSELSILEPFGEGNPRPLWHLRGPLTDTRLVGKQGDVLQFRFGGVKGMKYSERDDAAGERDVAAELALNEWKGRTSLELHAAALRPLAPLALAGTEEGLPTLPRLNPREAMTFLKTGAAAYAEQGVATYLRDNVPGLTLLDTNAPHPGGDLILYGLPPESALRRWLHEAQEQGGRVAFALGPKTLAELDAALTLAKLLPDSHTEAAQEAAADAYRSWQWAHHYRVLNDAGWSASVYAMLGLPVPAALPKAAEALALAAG
T1 sequence 2: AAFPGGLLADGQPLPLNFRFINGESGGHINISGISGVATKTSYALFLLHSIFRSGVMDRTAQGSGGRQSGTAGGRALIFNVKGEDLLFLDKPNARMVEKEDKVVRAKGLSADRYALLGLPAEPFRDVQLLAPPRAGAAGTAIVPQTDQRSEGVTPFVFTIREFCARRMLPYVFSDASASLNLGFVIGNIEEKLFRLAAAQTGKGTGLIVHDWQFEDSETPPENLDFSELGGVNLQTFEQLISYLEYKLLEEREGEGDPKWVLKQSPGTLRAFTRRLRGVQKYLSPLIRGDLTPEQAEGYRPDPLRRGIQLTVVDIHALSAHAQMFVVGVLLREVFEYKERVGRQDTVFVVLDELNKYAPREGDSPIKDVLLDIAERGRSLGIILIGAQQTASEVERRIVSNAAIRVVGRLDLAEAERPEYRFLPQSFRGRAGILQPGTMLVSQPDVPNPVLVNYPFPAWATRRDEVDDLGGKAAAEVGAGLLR

[2] = molecular target: T2, DrRecJ;DrHerA (Deinococcus radiodurans;Deinococcus …, UniProt D0EM60;Q9RW32 1-705;1-618, |); experiment: EMSA; HerA hexamer:RecJ 8:1; super-shift, RecJ binding enhanced; EMSA: 100 nM DNA, 80 mM NaCl, 20 mM Tris-HCl pH 7.5, 1 mM DTT, 30 C, 10 min, 5% TBE native PAGE; settings: protein: recombinant;recombinant; tags: HMT (His6-MBP) tag removed by TEV;N-terminal His6; copies: 1;6; label: 5' FAM; single strand
T2 sequence 1: T1 sequence 1
T2 sequence 2: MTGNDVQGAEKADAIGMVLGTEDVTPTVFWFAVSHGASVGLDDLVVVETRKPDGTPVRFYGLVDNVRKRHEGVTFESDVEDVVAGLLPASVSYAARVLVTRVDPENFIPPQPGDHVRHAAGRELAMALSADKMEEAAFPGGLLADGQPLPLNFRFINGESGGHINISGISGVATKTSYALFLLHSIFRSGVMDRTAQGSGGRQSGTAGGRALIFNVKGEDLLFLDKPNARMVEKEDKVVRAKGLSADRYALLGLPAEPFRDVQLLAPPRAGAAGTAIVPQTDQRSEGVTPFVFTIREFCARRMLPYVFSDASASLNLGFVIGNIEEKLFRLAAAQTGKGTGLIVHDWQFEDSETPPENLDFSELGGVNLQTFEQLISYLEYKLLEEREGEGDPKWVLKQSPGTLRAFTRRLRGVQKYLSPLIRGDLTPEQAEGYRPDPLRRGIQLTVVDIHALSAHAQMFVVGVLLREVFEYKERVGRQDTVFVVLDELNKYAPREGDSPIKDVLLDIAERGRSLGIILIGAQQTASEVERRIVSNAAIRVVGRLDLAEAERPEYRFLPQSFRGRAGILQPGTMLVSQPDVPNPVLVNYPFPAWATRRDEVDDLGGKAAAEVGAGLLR

**Q.** What does the source list for AAAAAAAAAA (ssDNA) [O1 (10 nt ssDNA)]?
**A.** binding result [1]: binds; binding result [2]: binds
